Experiment: soluble on expression in E. coli; label from the status in PepcDB or PDB records

Soluble on expression in E. coli, not soluble:
MGSDKIHHHHHHMTQLKTLPIYDPTLFEGAAEVYAQYRTKYPPAVFDKLTEIFNLNGQGRLLDLGTGPGLIAIPLSTKFQEVVAIDPDPEMLKEAQRQAATAGANNITWLEQGAELINPSLGVFKLATIGRAFHWMERQLVLERLYELLADDGAIALLNTGDDPWKSPLPWKQAAIGVVKKWLGEERRTGQRGQGIRKPVDPPHEVVIANSKFARQEVHEVTFEKSWTVSSYLGYLYTTAFSLKIFYGDKAEEFEADIKDALLAVEPSGHFTEELKATIQVVWKH
MGSDKIHHHHHHMTQNTPLFSMESVSVRHNSVPALDAVSWTLHRGAHCAVLGGNGAGKSTLLRLAAGAIRPDQHDGGTVLWFPRGSAEDSPIAVRTHCGLVSAEQQEHYLRRSWRITGEEIVLSGYFGTDMLYRPAGTAQRHAAARLAKALDAEHLMPVMLEAMSQGQLRKILLARAMVHSPQLLLLDEVCEGLDAAARREMLAAIDRAAALGTTVLMSGHRAGQFPDCIRQAVLLRQGRLVFTGGLHQALHLMRTTHQPLPAGASDTAAGQCSCCTPPPACAGAAPVVEIEHADVYLGRTPVLHDITWSILPGQNWVVRGPNGAGKSTLLRLLYGDQRQAWGGIVRWFGMAGPVPLEEVRRNVALVSDRVQALYGHDGYHSTRLELNGEELVHTGFYDSTGLWGKTPDAQQHAAALRWMDRLGIAALAGTDIRRMSYGTLRRFMLARALVRDPQLLILDEPLSGLDESARRIMLTTLSALMRSGRQLVLVTHHQEDIQPETTHELHLNAGRITYCGPVCPAGDTL
MGSDKIHHHHHHMTQQTDLQSKTNIDPLAMNDSFLAAADALAVDPMFGIPANVREVIARRGNATRLVILGTKGFGAHLMNVRHERPCEVIAAVDDFRYHSGELYYGLPIISTDRFTELATHDRDLVALNTCRYDGPKRFFDQICRTHGIPHLNFEQAVRAFGLQGNVDYRVDDWGADIVRNIPAFQTLAQRLADDYSVQTLYAVLNFHLTCEPEYYHEVERPYSTLYFRSGLLRFSDSEKMVDCGASIGESLAGLIGVTKGKFERVWMIEPDRINLQTLQNVLRRYTDTNFASRITVHGCGAGENTIRVPFNHEGGHGGFVKPADADHEPADLIDVRPIDDIIDDAPTFIKMDIEGSELSALKGARRAISEHKPKLAISAYHRSTDLLDLTNYILSIRPDYQIGLRHHTPDRWDTCLYFY
MGSDKIHHHHHHMTQYEVDIMYEVKLDAFNGPLDLLLHLIQKFEIDIYDIPMQALTEQYMQYVHAMKQLEINIASEYLVLASELLMIKSKMLLPQSTSDMDVDDDPREDLVGRLIEYQNYKEYTAILNDMKEERDFYFTKRPTDLSHLETDESWDPNHTIDLTELIVAYQRVKNRVELNTPKSVEIRKETFTIQQATEQVTSRLKDKDHFNFFSLFTFSEPIEQVVTHFLAILEMSKAGIINIEQQRNFEDINIIRGVNYHFG
MGSDKIHHHHHHMTRLAIVRQKYNPAGGAERFVSRALAALRDKGELEVSLIARRWEPVEGVKAYQVDGPYLGNVWRDWSFARKARRIWLREGFDLVQSHERIPGCDVYRAGDGVHRRWLQLRRQGMSAWGRFVLWCNPYHHYIQRAESEMFHHPRLKRVICNSQMVKREIQQYFGLSDQQIVVIYNGVDLQSFHPGLRSEHRQAMRSQWGVPGDAPLLLYVGSGFERKGVARALKALQANPGAWLMVVGGDKRLARYRRLADELGVDARVVFAGAQGEVRPFYGMADAFILPTLYDPFPNVCVEALASGLPVLTTRQCGAAEFVRQGENGWVCDAFDEEALARSVAEWLSVSRNWPVLAEAARRSVEGLSLGAMAERMLNCYRDLLSVSAVA
MGSDKIHHHHHHMTRTEHEISFGPYTAVATTRGGALRELRHEGRDLVVGFAADGEIPDYRGVICAPWPNRLAGGRYSFEGKDYQAVVNEEQRGTALHGLVFGAVWELLEHTASSVRLGTRIEPGDGYPGRLDVSVDYELRADGLHSTVRARNVGVEAAPYGACPHPYLIAGPAPLDEWSVQIPATEFMEVSADRLLPEGMAGVEGHAFDFRTEKVLGSVQIDHAFTGLIPNADGLAAVRVHDPSGTGVELEWDATWPWLQIHTADKPSGPTRLGLAVEPMTCPPDAFNSGTDVLRLAPGESHEASWTIRALSR
MGSDKIHHHHHHMTSANIQMAVYCFDVINAQLNREKEPPVPKEIPNVKLPLFVTWKKGHQHDLRGCIGTFSDLRLGEGLNEYAKTSAFHDSRFKPISREEVPSLQCGVSLLINFEPIHNFRDWTIGRHGVRMNFDDGHRNRSAVFLPEVAQEQGWNHVETIDHLIRKSGYGGHINDALRSALRIVRFQSSKLVLDYKDYVNYKQSHGLPLPR

Reference: the DeepSol protein solubility set
